In patent publication US8058507B2, “HOPM1 mediated disease resistance to Pseudomonas syringae in Arabidopsis” (priority 2007, dated 2011):

Legend:
[1] = test system: AtMIN7; assay: Immunoblot of endogenous AtMIN7 in Arabidopsis leaves infiltrated with ΔCEL mutant bacteria (pORF43); type: in vivo; settings: HopM1 delivered by 1×10^8 CFU/ml ΔCEL mutant bacteria (pORF43)
Protocol: (§1) In brief: leaf disc fractions were homogenized in 1×SDS-polyacrylamide gel electrophoresis (PAGE) sample buffer, boiled for 5 min, and centrifuged for 2 minutes. Proteins in the supernatant were separated on SDS-PAGE gels and transferred to Immobilon-P membrane for immunoblotting procedures (Millipore Corp., Bedford, Mass.).
AtMIN7 is a low-abundance protein in Arabidopsis plants, however it is detected with a rabbit polyclonal antibody, described herein. […] AtMIN7 was absent on the immunoblots of leaves infiltrated with ΔCEL mutant bacteria (pORF43) but not the leaves infiltrated with water or ΔCEL mutant bacteria (FIG. 2C).

[2] = test system: AtMIN10-HA; assay: Immunoblot of AtMIN10-HA in transgenic plants infiltrated with ΔCEL mutant bacteria (pORF43); type: in vivo, Arabidopsis; settings: HopM1 delivered by 1×10^8 CFU/ml ΔCEL mutant bacteria (pORF43)
Protocol: as §1
Furthermore AtMIN10-HA stably expressed in transgenic plants was also destabilized by HopM1. Leaves of AtMIN10-HA transgenic plants were infiltrated with water or 1×10^8 CFU/ml ΔCEL mutant bacteria or ΔCEL mutant bacteria (pORF43). AtMIN10-HA was detected using the HA epitope antibody.

[3] = test system: AtMIN7; assay: Detection of polyubiquitinated AtMIN7 in planta; type: cell-based, Arabidopsis thaliana; settings: MG132-treated N. benthamiana leaves
Excerpt: Left: AtMIN7:HA and 6×His:HopM1-300, 6×His:HopM301-712 or 6×His:HopM1-712 were transiently co-expressed in MG132-treated N. benthamiana leaves. Ubiquitinated proteins were detected by western blot (WB) with a polyclonal ubiquitin (Ub) antibody (Sigma Co.). Right: AtMIN7:HA and 6×His:HopM1-712 were transiently co-expressed in 1% DMSO (−)- or MG132-treated N. benthamiana leaves. AtMIN7 was immunoprecipitated (IP) using a polyclonal AtMIN7 antibody. Ubiquitinated AtMIN7 protein was detected by western blot (WB) with a polyclonal ubiquitin (Ub) antibody (Sigma Co.). See Materials and Methods for transient expression and immunoprecipitation of AtMIN7 and HopM1 in N. benthamiana leaves.

[4] = test system: hrcC mutant; assay: Bacterial multiplication in HopM1 transgenic Arabidopsis plants; type: in vivo, Pseudomonas syringae; settings: full-length HopM1 expressed in transgenic Arabidopsis
Protocol: Following inoculation, infected plants were monitored daily over a 3- to 4-day period for symptom development and bacterial multiplication. For experiments described in FIGS. 1 and 5, plants were sprayed with 30 μM dexamethasone (DEX) 24 h before bacterial inoculation (1×10^6 cfu/ml).
Leaves were harvested and surface sterilized as follows: 1) whole leaves were removed from a host plant and gently mixed in a 70% ethanol solution for 1 minute. Leaves were blotted briefly on paper towels then rinsed in sterile distilled water for 1 minute, then blotted dry on paper towels. Leaf disks were excised from leaves with a 0.5 cm^2 or smaller cork borer, depending on the size of the sample leaves; 2) leaf disks from the leaves of 2 or more independent replicate plants were pooled for a single tissue sample and placed in a 1.5-mL microfuge tube with 100 μL sterile distilled water, the amount of leaf tissue per tube was recorded as leaf surface area. Three or more samples were harvested for each time point. […] The number of serial dilutions necessary to get countable colonies were determined for each sample, however dilutions to 10^−7 were usually sufficient for any bacterial strain; 7) The samples were plated on the appropriate medium (e.g., Low salt Luria Bertani) supplemented with the necessary antibiotics to select for the specific inoculated bacterial strain. […]

[5] = test system: AtMIN2, AtMIN7, and AtMIN 10; assay: Immunoblot of AtMIN-HA proteins transiently co-expressed with HopM1 in N. benthamiana leaves; type: cell-based, Arabidopsis thaliana; settings: DEX-induced expression in N. benthamiana leaves
Protocol: Oligonucleotide primers used for amplifying hopMl and AtMIN genes from Pst DC3000 genomic DNA or Arabidopsis total cDNA, as applicable, used for creating these expression vectors are shown in FIG. 14. Two days after leaf infiltration, 0.3 μM DEX was applied to induce the expression of HopM11-712, or HopM11-300 or HopM11-712. Three hours after DEX treatment, leaf discs were taken for subsequent analyses using immunoblotting or co-immunoprecipitation experiments (see, EXAMPLES herein for procedures).
Plant cells expressing 6×His-HopM1 and AtMIN-HA proteins in N. benthamiana leaves were engineered to co-express a second transiently expressed protein, either full-length 6×His-HopM1 or 6×His-HopM11-300. […] Specifically, AtMIN7-HA was pulled down with HopM11-300, but not with 6×His-HopM1301-712. Please note that membrane associated AtMIN 10-HA was preferably eliminated during bacterial infection. Arrows indicate lanes in which DEX-induced expression of full-length HopM1 destabilized AtMIN2, AtMIN7, and AtMIN 10 (FIG. 6B).
Expression Plasmids for Nicotiana cells: For transient expression studies in Nicotiana benthamiana; expression plasmids were engineered to express C-terminal HA epitope-tagged AtMIN proteins using a constitutive CaMV 35S promoter operably linked to AtMIN sequences. […]

B1: full-length HopM1: Pst DC3000 type III effector, 712-aa virulence protein (SEQ ID NO:34) (protein)
chain: MISSRIGGAGGVELSRVNQQHDTVPAQTAHPNAVTAGMNPPLTPDQSGSHATESSSAGAARLNVAARHTQLLQAFKAEHGTAPVSGAPMISSRAALLIGSLLQAEPLPFEVMAEKLSPERYQLKQFQGSDLQQRLEKFAQPGQIPDKAEVGQLIKGFAQSVADQLEHFQLMHDASPATVGQHAKADKATLAVSQTALGEYAGRASKAIGEGLSNSIASLDEHISALDLTLQDAEQGNKESLHADRQALVDAKTTLVGLHADFVKSPEAKRLASVAAHTQLDNVVSDLVTARNTVGGWKGAGPIVAAAVPQFLSSMTHLGYVRLSTSDKLRDTIPETSSDANMLKASIIGMVAGIAHETVNSVVKPMFQAALQKTGLNERLNMVPMKAVDTNTVIPDPFELKSEHGELVKKTPEEVAQDKAFVKSERALLNQKKVQGSSTHPVGELMAYSAFGGSQAVRQMLNDVHQINGQTLSARALASGFGGAVSASSQTLLQLKSNYVDPQGRKIPVFTPDRAESDLKKDLLKGMDLREPSVRTTFYSKALSGIQSSALTSALPPVTAQAEGASGTLSAGAILRNMALAATGSVSYLSTLYTNQSVTAEAKALKAAGMGGATPMLDRTETALNNIRHPNRESLPHTFQKSTLSGIPRVAENAYHMGRGALQLPTQMAVDTVRVVDEGVLNAVASAREALKQPTKDDDALRALEEGLLDPR
modifications: 6xHis tag; Pseudomonas syringae pv. tomato str. DC3000
B1 was tested, and the “endogenous AtMIN7 protein on immunoblot” value [1] was “absent”, the “stability of AtMIN10-HA” value [2] was “destabilized” and the “polyubiquitination of AtMIN7” value [3] was “enhanced”. The “complementation effect on multiplication” value [4] was “did not show this effect” and the “destabilization of AtMIN2, AtMIN7 and AtMIN10” value [5] was “destabilized”.
